Results reported in PMC3241658.

T1: TWINKLE (UniProt Q96RR1 32-684)
T1 sequence: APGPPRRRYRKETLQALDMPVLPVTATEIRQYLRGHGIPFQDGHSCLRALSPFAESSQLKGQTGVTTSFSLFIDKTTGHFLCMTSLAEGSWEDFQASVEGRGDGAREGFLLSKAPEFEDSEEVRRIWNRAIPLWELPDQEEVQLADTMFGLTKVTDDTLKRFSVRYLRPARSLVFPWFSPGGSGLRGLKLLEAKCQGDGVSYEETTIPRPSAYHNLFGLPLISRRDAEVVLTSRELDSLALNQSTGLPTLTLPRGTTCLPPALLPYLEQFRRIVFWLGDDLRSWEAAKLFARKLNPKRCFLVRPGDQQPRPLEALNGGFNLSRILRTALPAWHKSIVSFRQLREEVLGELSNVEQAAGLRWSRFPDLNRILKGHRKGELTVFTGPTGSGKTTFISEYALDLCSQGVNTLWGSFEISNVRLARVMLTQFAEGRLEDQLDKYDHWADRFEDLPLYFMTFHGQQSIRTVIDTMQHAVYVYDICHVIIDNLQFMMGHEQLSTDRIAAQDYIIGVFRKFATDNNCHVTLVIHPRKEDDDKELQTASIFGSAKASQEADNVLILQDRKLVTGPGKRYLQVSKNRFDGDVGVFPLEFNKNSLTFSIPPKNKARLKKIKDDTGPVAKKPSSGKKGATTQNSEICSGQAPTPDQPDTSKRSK

B1: closed circular ssDNA (100 nt) (ssDNA)
DNA: GAGGGGTATGTTTTTTTTTTTTTTTTTTTTTTTTTTTTTTTTTTTTTTTTTTTTTTTTTTTTTTTTTTTTTTTTTTTTTTTTTTTTTTTTCATACCCCTAT
B2: linear dsDNA (100 bp) (dsDNA)
DNA 1: GATTTTTTTTTTTTTTTTTTTTTTTTTTTTTTTTTTTTTCATACCCCTATGAGGGGTATGTTTTTTTTTTTTTTTTTTTTTTTTTTTTTTTTTTTTTTAT
DNA 2: ATAAAAAAAAAAAAAAAAAAAAAAAAAAAAAAAAAAAAAACATACCCCTCATAGGGGTATGAAAAAAAAAAAAAAAAAAAAAAAAAAAAAAAAAAAAATC
B3: linear ssDNA (100 nt) (ssDNA)
DNA: B2 DNA 1

The binders below were run against T1, TWINKLE (assay: EMSA).

| Binder | binding result |
| --- | --- |
| B1 | binds |
| B2 | binds |
| B3 | binds |
